± gives the standard deviation of the averaged measurements.

This passage reports switch fluorescence ratio results from the supplement of paper PMC10126150.
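Also: ATP exposure 15 min at 22 °C before imaging.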

The series has as its system ATP. The series is described as follows: switch fluorescence ratio, 500 uM ATP over buffer (Cy3 cluster intensity, sum of 5 cycles each) (fold (ratio)); higher = stronger signal-on switching upon ATP binding; sequences stand for … in TCGTCGGCAGCGTCAGATGTGTATAAGAGACAGTTTTTTTTTTTTTTTTTTTTTTTTT…TC. To be noted: aptamer strand: ATP DNA aptamer (quencher-CACCTGGGGGAGTATTGCGGAGGAAGG + anchor), 100 nM annealed; ATP concentration: 500 uM. A digest of the protocol:
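Cy3-labelled switching-strand clusters on a modified Illumina MiSeq flow-cell were annealed to 100 nM quencher-labelled ATP aptamer and imaged first in selection buffer, then after 15 min with 500 uM ATP at 22 °C. NaOH stripping and re-annealing separated each of five buffer/ATP cycles, and clusters outside 100-1000 RFU were excluded. The fluorescence ratio sums target-cycle Cy3 intensity over buffer-cycle Cy3 intensity per cluster and averages it per switch-domain sequence.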
In the case of GCTGCTGGGC, the switch fluorescence ratio came out at 0.968 ± 0.036.

For the sequence TTAGTTTGAA, the switch fluorescence ratio was 0.968 ± 0.012.

With ATTTGGATGT, the switch fluorescence ratio is 1 ± 0.026.

Consider ACCGGTGCTG, for which the switch fluorescence ratio was found to be 0.98 ± 0.042.

On to AAATATACGA, for which the switch fluorescence ratio is 1.16 ± 0.15.

For GCAGATCGTG, the switch fluorescence ratio was found to be 1.02 ± 0.026.

Take GGGCGAAATG: the switch fluorescence ratio worked out at 1.32 ± 0.28.

With CATGCAAATA, the switch fluorescence ratio turned out to be 1.07 ± 0.034.

Take ACTTGACGTG: the switch fluorescence ratio amounted to 1.01 ± 0.059.

Consider TTAGGTTAAA, for which the switch fluorescence ratio amounted to 1.06 ± 0.12.

In the case of ATCAGATGAT, the switch fluorescence ratio is 1.0009 ± 0.00017.

On to TTTTTTTGGA, for which the switch fluorescence ratio stood at 0.976 ± 0.021.

Regarding AGCTGCATG, the switch fluorescence ratio worked out at 0.997 ± 0.024.

For the sequence ATTGAAAAAC, the switch fluorescence ratio was 1.03 ± 0.022.

CGGGAACTTT: the switch fluorescence ratio was found to be 1.02 ± 0.065.

With AAGCTCGGTA, the switch fluorescence ratio stood at 0.9866 ± 0.0065.

As for CGTTTCGCCC, the switch fluorescence ratio was 1.04 ± 0.038.

For the sequence TGCTGGATGG, the switch fluorescence ratio was 0.975 ± 0.032.

For AGGGTCGGGC, the switch fluorescence ratio turned out to be 1.027 ± 0.0061.

Take GGCCTGGGCT: the switch fluorescence ratio worked out at 1.02 ± 0.061.

Consider TAGCATTCAT, for which the switch fluorescence ratio came out at 0.994 ± 0.0072.

ATAAGGGCGT: the switch fluorescence ratio was found to be 1.001 ± 0.0065.

Turning to TTCAGGTCGT, the switch fluorescence ratio turned out to be 0.992 ± 0.052.

Regarding CGTGAGATTA, the switch fluorescence ratio is 0.9846 ± 0.0009.

Turning to GGGTACCGAC, the switch fluorescence ratio turned out to be 1.08 ± 0.036.

In the case of CGTGCGGGGG, the switch fluorescence ratio worked out at 1.01 ± 0.035.

Turning to ATGAAGGAGC, the switch fluorescence ratio turned out to be 0.9917 ± 0.0046.

Consider ACGCGGGGGA, for which the switch fluorescence ratio stood at 1.03 ± 0.014.

Take TTTTTGGACT: the switch fluorescence ratio amounted to 0.983 ± 0.012.

Turning to AGCAGCTGGG, the switch fluorescence ratio was 1.01 ± 0.012.

As to ATCTAGATTG, the switch fluorescence ratio is 0.982 ± 0.042.

Consider TGTAGGGGTT, for which the switch fluorescence ratio stood at 1 ± 0.044.

As to AGCAGTTCGG, the switch fluorescence ratio amounted to 1 ± 0.036.

Consider GAAGGGAGAG, for which the switch fluorescence ratio turned out to be 0.993 ± 0.031.

Take GTCACGTATT: the switch fluorescence ratio amounted to 1.16 ± 0.0099.

In the case of TCAGAGGGCT, the switch fluorescence ratio came out at 0.991 ± 0.018.

Turning to GATAATAGGG, the switch fluorescence ratio was determined as 0.99 ± 0.045.

As for GACGGAGGCA, the switch fluorescence ratio came to 1.03 ± 0.031.

For the sequence TGGGGTTAAG, the switch fluorescence ratio was determined as 0.977 ± 0.025.

TAGAATACTT: the switch fluorescence ratio is 0.996 ± 0.016.

In the case of GGAGTGCTGG, the switch fluorescence ratio was found to be 0.995 ± 0.032.

On to TACAGTTGCG, for which the switch fluorescence ratio amounted to 1.02 ± 0.045.

On to CATTTGAGCC, for which the switch fluorescence ratio was determined as 0.973 ± 0.013.

Regarding GAGGCAAAG, the switch fluorescence ratio is 2.87 ± 2.4.

As to TTTTCGGTCA, the switch fluorescence ratio was found to be 0.976 ± 0.026.

Consider TTGAAATTTG, for which the switch fluorescence ratio was found to be 1 ± 0.011.

As to ACTTATGATA, the switch fluorescence ratio was 1.02 ± 0.054.

As to TTTGAGTGGC, the switch fluorescence ratio turned out to be 0.969 ± 0.041.

As to AATCAATTTT, the switch fluorescence ratio came to 1.007 ± 0.0054.

As for GGGGGAGAAT, the switch fluorescence ratio was found to be 0.986 ± 0.025.

As to GTGTTGGAGG, the switch fluorescence ratio amounted to 0.996 ± 0.017.

With TGGGCCTTGT, the switch fluorescence ratio was found to be 1.023 ± 0.0033.

As for CAGAGACTTT, the switch fluorescence ratio stood at 0.994 ± 0.012.

With AAAAGTATAA, the switch fluorescence ratio worked out at 1.03 ± 0.036.

In the case of AAGTTCACAA, the switch fluorescence ratio worked out at 1.01 ± 0.033.

Take AAGGCATGCA: the switch fluorescence ratio came to 1.01 ± 0.032.

Take GCGATGAATC: the switch fluorescence ratio was found to be 1.04 ± 0.04.

Consider TAAGGCGAAC, for which the switch fluorescence ratio came to 1.03 ± 0.015.

As to CTATGCAGTG, the switch fluorescence ratio is 1.03 ± 0.024.

For GAGGTCCAGC, the switch fluorescence ratio amounted to 1.14 ± 0.074.

For the sequence GAGATTTTTT, the switch fluorescence ratio was 1.018 ± 0.0091.

Take ACGTGTATTT: the switch fluorescence ratio is 1.08 ± 0.09.

Regarding TTTTATGGGT, the switch fluorescence ratio was 0.992 ± 0.018.

Take GTTATTAGCT: the switch fluorescence ratio was 0.992 ± 0.013.

Take TAAGACAAAG: the switch fluorescence ratio amounted to 0.992 ± 0.053.

For the sequence GGTATACTGA, the switch fluorescence ratio was determined as 1.05 ± 0.049.

On to TATTTGAAGG, for which the switch fluorescence ratio stood at 0.986 ± 0.053.

Turning to CACGTCCAC, the switch fluorescence ratio was 1.44 ± 0.061.

As to CAATGTGTTT, the switch fluorescence ratio amounted to 1.01 ± 0.035.

In the case of CTGTGTATGT, the switch fluorescence ratio came out at 1.02 ± 0.061.

As for ATATATTGTA, the switch fluorescence ratio came out at 1.001 ± 0.0059.

On to CCTTGTGCAG, for which the switch fluorescence ratio worked out at 1.25 ± 0.018.

In the case of AAAAGGCCGT, the switch fluorescence ratio turned out to be 1.02 ± 0.0058.

With TGCAAATTCG, the switch fluorescence ratio amounted to 0.999 ± 0.022.

Take GTAGAGAACT: the switch fluorescence ratio was 1 ± 0.021.

ACAAAACGTT: the switch fluorescence ratio amounted to 1.028 ± 0.0078.

Consider TTATTTGTCA, for which the switch fluorescence ratio came to 0.989 ± 0.013.

On to CATATGACGG, for which the switch fluorescence ratio was found to be 0.986 ± 0.038.

As for TTATGTAGTA, the switch fluorescence ratio came out at 1 ± 0.019.

For the sequence CGGGGTGGTG, the switch fluorescence ratio turned out to be 1.04 ± 0.067.

On to GTAGAAAGTT, for which the switch fluorescence ratio worked out at 0.984 ± 0.0028.

On to TTGATGGGGT, for which the switch fluorescence ratio is 1.03 ± 0.1.

On to AGGGGCACTC, for which the switch fluorescence ratio was 0.992 ± 0.028.

As to TTACTAATTT, the switch fluorescence ratio was 1.05 ± 0.036.

CGGGGTCGG: the switch fluorescence ratio stood at 1 ± 0.014.

On to GGCCCCTGGC, for which the switch fluorescence ratio came out at 1.04 ± 0.063.

TTTGGGTAGG: the switch fluorescence ratio was determined as 1.03 ± 0.062.

Turning to CCGTAACGGA, the switch fluorescence ratio worked out at 0.972 ± 0.012.

With ATTTAATTCG, the switch fluorescence ratio was 1.01 ± 0.022.

As to TGTTGTAGTC, the switch fluorescence ratio turned out to be 0.965 ± 0.017.

On to GCCGGGGAGG, for which the switch fluorescence ratio was 0.984 ± 0.038.

For the sequence GTTTTGTTGT, the switch fluorescence ratio stood at 0.99 ± 0.027.

With AAAGCCGGTA, the switch fluorescence ratio was determined as 1.01 ± 0.084.

Take GATGAAGGGA: the switch fluorescence ratio worked out at 0.979 ± 0.013.

For AGGTTGCAGC, the switch fluorescence ratio was 0.992 ± 0.032.

In the case of AGGTTCGATC, the switch fluorescence ratio was 1.02 ± 0.043.

With GTATCGAGGA, the switch fluorescence ratio was 0.963 ± 0.047.

Regarding CTTGCGGCCT, the switch fluorescence ratio was determined as 1.11 ± 0.15.

Take GTTTTCCCTT: the switch fluorescence ratio is 0.982 ± 0.016.

For the sequence GCGAGTTCTA, the switch fluorescence ratio came to 0.963 ± 0.025.

As for AAGTTTGATA, the switch fluorescence ratio is 0.981 ± 0.058.

For the sequence GGCTTTGCCC, the switch fluorescence ratio was found to be 0.9669 ± 0.0028.

With TTGGGGCCTC, the switch fluorescence ratio is 1 ± 0.033.

Take ATACTTTTGC: the switch fluorescence ratio was determined as 0.952 ± 0.034.

As to TGAGAATTTA, the switch fluorescence ratio was 0.9935 ± 0.0019.

Regarding CTTAGTGTTC, the switch fluorescence ratio turned out to be 0.992 ± 0.028.

On to TTGCTGGGAT, for which the switch fluorescence ratio is 1.02 ± 0.012.

For the sequence AGGGCAGCGT, the switch fluorescence ratio amounted to 1.004 ± 0.0041.

For the sequence AAAAGGCGGT, the switch fluorescence ratio was 1.01 ± 0.012.

On to ACTTGGGGCC, for which the switch fluorescence ratio was 0.971 ± 0.012.

GACAAAGATT: the switch fluorescence ratio was 1.0037 ± 0.00037.

Turning to CCGAAGGACT, the switch fluorescence ratio was 1.02 ± 0.072.

For TCACGTTTTT, the switch fluorescence ratio was 1.01 ± 0.031.

Regarding GGTCGTGTAA, the switch fluorescence ratio was determined as 0.991 ± 0.061.

As to CGCGCAGGGA, the switch fluorescence ratio was determined as 1.03 ± 0.013.

As for AGTGGGGGGT, the switch fluorescence ratio was found to be 0.991 ± 0.03.

With TTTCTTTAGT, the switch fluorescence ratio was 1 ± 0.04.

With GTTTATGGTG, the switch fluorescence ratio was determined as 0.999 ± 0.025.

As for CCTTTTACTT, the switch fluorescence ratio worked out at 1.03 ± 0.032.

With TTCTAGGGCA, the switch fluorescence ratio came out at 1.02 ± 0.038.
